Test results published in the supplement of paper PMC9170038.

Test system: MS2 coat protein
Assay: apparent KD of MS2 coat protein; designed switch direction (-1 OFF switch, 1 ON switch): -1; higher = weaker reporter binding
Procedure, shortened: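 Normalised cluster fluorescence was curve-fitted, and each design's median over clusters is its apparent KD. Before this, SNAP-549-labelled MS2 coat protein was titrated from 0.7 or 1.5 nM, doubling to 3 µM, over RNA switches transcribed on Illumina chips by stalled E. coli RNA polymerase. Titrations had no input, 200 uM small-molecule ligand, or an oligonucleotide input, and steps lasted 0.8–1.5 h (lowest) to 10–20 min (highest).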

[1] = input ligand: microRNA oligo, concentration not stated
[2] = Eterna round: R95, input ligand: FMN 200 uM
[3] = Eterna round: R95, input ligand: microRNA oligo, concentration not stated
[4] = Eterna round: R95, input ligand: none

Sequence | apparent KD of MS2 coat protein (input ligand: FMN 200 uM) [nM] | apparent KD of MS2 coat protein [1] [nM] | apparent KD of MS2 coat protein (input ligand: none) [nM] | apparent KD of MS2 coat protein [2] [nM] | apparent KD of MS2 coat protein [3] [nM] | apparent KD of MS2 coat protein [4] [nM]
AGUCAGGCGGUAGGAUAUCCAAACCGAGUGACCCUUUCAUAACAUGAGGAUCACCCAUGUCGGUGGGAGAAGGGCCGUAAGGCA [Mat - Exclusion NG 2 - Mod of JL - D66] (Eterna round: R96, puzzle: Exclusion NG 2) | 127 | 52.8 | 56.6 |  |  | 
AUUGUAUAGGAAGGAUAUAGAAUAUUAUUUUAACAUGAGGAUCACCCAUGUAACCUUAUGUGUAGCUAGAAGGUCCAUUUGUUA [Title] (Eterna round: R96, puzzle: Exclusion NG 2) |  | 228 |  |  |  | 
AAUUAAUAUCAGGAUAUGACGUGCUUCGGCACGUCAGAAGGGAUGACAUGAGGAUCACCCAUGUGAUCAAUUAA [E6/1-A1] (Eterna round: R97, puzzle: Exclusion 6) | 105 |  | 28.6 |  |  | 
GUCACUAGAGGAUAUACAAUGGUAUAUGAUCCUAGAGACAUACAUGAGGAUCACCCAUGUAGAAGGCUAGUAUU [Exclusion 2 - 5] (Eterna round: R96, puzzle: Exclusion 2) | 52.9 | 53.1 | 52.5 |  |  | 
GAGGGACAUGAGGAUCACCCAUGUGAGGAUAUGUAAGAGAGAGGAGAGAGGAUAAGAAACAGAAGGCGCGUGAG [JR_Exclu1_Sub089] (puzzle: Exclusion 1) |  |  |  | 30.1 | 55.7 | 43.2
GCCACGGGAGGAUAUCGCGGAGGCUACAUGAGGAUCACCCAUGUCUGGUCUUCGUGCUCCCGAGAAGGCCCGUCAG [Bivemaus] (puzzle: Exclusion 5) |  |  |  |  | 13.2 | 
UACUUGUUAGGAUAUCUUACAUUUGCAUCAUAGCAACUAUUGGAGAAGGGACAUGAGGAUCACCCAUGUUUGGU [tap-tap-tappy13] (Eterna round: R97, puzzle: Exclusion 4) | 48.4 |  | 41.9 |  |  | 
AAAAAGGUAGGAUAUACGAAAAAAAAGGGUAGAAAAAAAACACAUGAGGAUCACCCAUGUAGAAGGACCAAAAU [salish99_ex2_r3_044] (puzzle: Exclusion 2) |  |  |  | 82.8 | 35.3 | 36.6
GUGUUGCGAGGAUAUAUAAGGGUAUGUUCUUAGGAUAUGGAACAUGAGGAUCACCCAUGUAGAAGGUGCAUAUC [JR_Ex2_Sub047] (Eterna round: R97, puzzle: Exclusion 2) | 67.8 |  | 33.9 |  |  | 
GAUAAGCUAGGAUAUACAUAUUAUUUAAUAUCCUCAUUAAUACAUGAGGAUCACCCAUGUAGAAGGAGCAAUAG [Mat - Exclusion 2 - Mod of Hog - D90] (puzzle: Exclusion 2) |  |  |  |  | 108 | 
AUCAUGUAAGGAUAUCUGACAAGUGACGAAAGUCACAGUUCAGAGAAGGUACAUGAGGAUCACCCAUGUAGAAC [Ex4-3: 42] (puzzle: Exclusion 4) |  |  |  | 82.4 | 51.3 | 71.6
AUUUUGUGAGGAUAUUAGUAGUAAAUAAAUAAAAUUAUUACUGAGAAGGCACAUGAGGAUCACCCAUGUUCCUA [Salish 062 v7] (Eterna round: R97, puzzle: Exclusion 4) | 193 |  | 19 |  |  | 
AAAAGACAUGAGGAUCACCCAUGUGAGGAUAUUGGAAGAAAGAAAAGAAAGAAAGAAACGAGAAGGCACAAAAG [Exclusion] (puzzle: Exclusion 1) |  |  |  | 68.2 | 60.9 | 51.9
UAGUGACAUGAGGAUCACCCAUGUGAGGAUAUAGUAGGAGUAAAGAGGAAAGAGAGAACUAGAAGGCACAGUGA [JR_Exclu1_Sub031] (puzzle: Exclusion 1) |  |  |  | 80 | 48.4 | 51.4
AAUAAAGUAGGAUAUCGGCCAGCGAACAUGAGGAUCACCCAUGUGAUGCCGUGCCGACGCCGAGAAGGGCUUAAAA [Usceisma] (puzzle: Exclusion 5) |  |  |  | 13.5 | 12 | 12.1
